From patent publication US20120213771A1 (CELLDEX THERAPEUTICS, published 2012)
Numbering of substitutions follows the chain as printed. Several values for one entry are separate records, joined by “and”; a condition that tells them apart may be missing. Identical values can stand only once.

T1: recombinant purified human CD27 (human, UniProt P26842 20-191)
T1 construct: also called soluble or recombinant human CD27
T1 sequence: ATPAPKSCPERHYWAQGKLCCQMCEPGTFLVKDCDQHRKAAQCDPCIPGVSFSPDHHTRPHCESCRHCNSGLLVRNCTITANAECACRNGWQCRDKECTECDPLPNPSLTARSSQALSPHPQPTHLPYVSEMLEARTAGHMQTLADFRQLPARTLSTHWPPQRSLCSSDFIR

B1: 1G5-1B9 (antibody, V domains shown)
VH: QVQLVESGGGVVQPGRSLRLSCAASGFSFSSYGMHWVRQAPGKGLEWVALLWYDGSHKDFADSVKGRFTISRDNSKNTLDLQMNSLRAEDTAVYYCAREGLAVPGHWYFDLWGRGTLVTVSS
VL: AIQLTQSPSSLSASVGDRVTITCRASQGISSALAWYQQKPGKAPKLLIYDASSLESGVPSRFSGSGSGTDFTLTISSLQPEDFATYYCQQFNTYPRTFGQGTKVEIK
notes: Human IgG from hybridoma
B2: 1F5-1H5 (antibody, V domains shown)
VH: QVQLVESGGGVVQPGRSLRLSCAASGFTFSSYDMHWVRQAPGKGLEWVAVIWYDGSNKYYADSVKGRFTISRDNSKNTLYLQMNSLRAEDTAVYYCARGSGNWGFFDYWGQGTLVTVSS
VL: B1 VL with A1D, L4M, S31R, A32W, G41E, L46S, D50A, E55Q, F91Y
notes: Fully human IgG from HuMAb mouse hybridoma, protein A purified; Human IgG1 is used as its isotype control; also called mAb 1F5; anti-CD27 mAb 1F5
B3: 1H8-B4 (antibody, V domains shown)
VH: QVQLVESGGGVVQPGRSLRLSCAASGFTFNIYDMHWVRQAPGKGLEWVAVIWYDGSNQYYADSVKGRFTISRDNSKNTLYLQMNILRAEDTAVYYCARGTHWGYFDYWGQGTLVTVSS
VL: B1 VL with A1D, L4M, A32W, G41E, L46S, D50A, S53N, E55Q, F91Y, T93S
notes: Human IgG from hybridoma
B4: 3H12-1E12 (antibody, V domains shown)
VH: B2 VH with A24T, R87G, A88D
VL: B1 VL with A1D, L4M, S31R, A32W, G41E, L46S, D50A, E55Q, F91Y
notes: Human IgG from hybridoma; Two subclones (3H12-1C8 and 3H12-1E12) are both called 3H12; also called 3H12-1C8
B5: 3H8-1B11 (antibody, V domains shown)
VH: EVQLVESGGGLVQPGGSLRLSCAASGFTFSSYWMAWVRQAPGKGLEWLGNIKQDGSEKYYVDSVKGRFTISRDNAKNSLYLQMNSLRAEDTAVYYCVRELGMDWYFDLWGRGTLVTVSS
VL: EIVLTQSPATLSLSPGERATLSCRASQSVDSYLAWYQQKPGQAPRLLIYDASNRATGIPARFSGSGSGTDFTLTISNLEPEDFAVYYCQQRSNWPPTFGQGTKVEIK
notes: Human IgG from hybridoma
B6: 2G9-1D11 (antibody, V domains shown)
VH: QVQLVESGGGVVQPGRSLRLSCAASGFTLSSHDIHWVRQAPGKGLEWVAVIWNDGSNKYYADSVKGRFTISRDNSTNSLFLQMNSLRAEDTAVYYCVRGTADLEHWDQGTLVTVSS
VL: DIQMTQSPSSLSASVGDRVTITCRASQGISSWLAWYQQKPEKAPKSLIYAASSLQSGVPSRFSGSGSGTDFTLTISSLQPEDFATYYCQQYNSYPLTFGGGTKVEIK
notes: Human IgG from hybridoma
B7: 2C2-1A10 (antibody, V domains shown)
VH: B6 VH with L29F, H32Y, R98G
VL: B6 VL
notes: Human IgG from hybridoma
B8: 3A10-G10 (antibody, V domains shown)
VH: QVQLVESGGGVVQPGRSLRLSCAASGFTFSHYGMHWVRQAPGKGPEWVAIIWYDGSNKYYADSVKGRFTISRDNSKNTLDLQMNSLRAEDTAVYYCARDGWTTMVRGLNVFDIWGQGTMVTVSS
VL: B6 VL with G28D, L96P, G100Q, K103R, V104L
notes: Human IgG from hybridoma; also called 3A10-1G10

What follows are binders tested against T2, purified recombinant monkey (macaque) CD27 (macaque) (assay: ELISA on plate-bound monkey CD27, half-max binding).
T2 construct: The paragraph speaks of cynomolgus macaques as the model; the protein itself is only called macaque / monkey CD27; Captured with anti-Flag antibody in one format; also called monkey CD27

Row | Binder | EC50 [µg/mL]
1 | B1 | 0.065
2 | B2 | 0.12
3 | B3 | 0.105
4 | B4 | 0.123
5 | B5 | 0.065
6 | B6 | 0.069
7 | B7 | 0.034

Each binder was assayed against T1, recombinant purified human CD27 (assay: ELISA on CD27-coated plates, half-max binding (C value of 4-parameter fit)).
Protocol: Microtiter plates were coated with soluble or recombinant human or macaque CD27 in PBS, and then blocked with 5% bovine serum albumin in PBS. Protein A purified human mAbs and an isotype control were added at […] concentrations and incubated at 37° C. The plates were washed with PBS/Tween and then incubated with a goat-anti-human IgG Fc-specific polyclonal reagent conjugated to alkaline phosphatase at 37° C. After washing, the plates were developed with pNPP substrate (1 mg/ml), and analyzed at OD 405-650 using a microtiter plate reader.

Row | Binder | EC50
8 | B1 | 0.49 nM and 0.074 µg/mL
9 | B2 | 0.39 nM and 0.059 µg/mL
10 | B3 | 0.43 nM and 0.064 µg/mL
11 | B4 | 0.57 nM and 0.085 µg/mL
12 | B5 | 0.46 nM and 0.069 µg/mL
13 | B6 | 0.43 nM and 0.064 µg/mL
14 | B8 | 0.63 nM and 0.094 µg/mL
15 | B7 | 0.3 nM and 0.045 µg/mL
